Test results published in patent US20220298218A1 (ANTAG THERAPEUTICS, published 2022).
Read-outs that look alike come from different tables or passages of the source. Where no end group is shown, it is not given here. The star is where a group is joined. C16 diacid = O=C(O)CCCCCCCCCCCCCCC(=O)*

What was measured:
human GIP receptor [1] = target: T1, human GIP receptor (human, UniProt P48546 22-466); test: cell-based or functional assay
T1 sequence (looked up): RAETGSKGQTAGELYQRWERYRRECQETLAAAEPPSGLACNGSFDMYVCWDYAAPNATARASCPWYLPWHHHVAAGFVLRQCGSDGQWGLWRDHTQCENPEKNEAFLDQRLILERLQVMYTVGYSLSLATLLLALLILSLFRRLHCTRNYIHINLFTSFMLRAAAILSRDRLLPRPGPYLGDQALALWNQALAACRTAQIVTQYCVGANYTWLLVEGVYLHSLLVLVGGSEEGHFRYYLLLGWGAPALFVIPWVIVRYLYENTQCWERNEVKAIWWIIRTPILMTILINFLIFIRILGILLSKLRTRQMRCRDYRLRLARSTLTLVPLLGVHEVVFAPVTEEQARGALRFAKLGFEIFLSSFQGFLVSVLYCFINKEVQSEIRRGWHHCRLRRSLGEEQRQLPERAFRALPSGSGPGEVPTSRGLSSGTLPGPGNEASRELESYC

human GIP receptor [2] = target: T1, human GIP receptor; test: cell-based or functional assay; remark: listed apart in the source

B1: AT451 (peptide)
peptide: EGTFISDYSIAMDKIK(C16 diacid)QQDFVNWLLAQKGKKNDWK-OH
modifications: N-terminus assumed
SMILES: CC[C@H](C)[C@H](NC(=O)[C@H](CO)NC(=O)[C@H](Cc1ccc(O)cc1)NC(=O)[C@H](CC(=O)O)NC(=O)[C@H](CO)NC(=O)[C@@H](NC(=O)[C@H](Cc1ccccc1)NC(=O)[C@@H](NC(=O)CNC(=O)[C@@H](N)CCC(=O)O)[C@@H](C)O)[C@@H](C)CC)C(=O)N[C@@H](C)C(=O)N[C@@H](CCSC)C(=O)N[C@@H](CC(=O)O)C(=O)N[C@@H](CCCCN)C(=O)N[C@H](C(=O)N[C@@H](CCCCNC(=O)CCCCCCCCCCCCCCC(=O)O)C(=O)N[C@@H](CCC(N)=O)C(=O)N[C@@H](CCC(N)=O)C(=O)N[C@@H](CC(=O)O)C(=O)N[C@@H](Cc1ccccc1)C(=O)N[C@H](C(=O)N[C@@H](CC(N)=O)C(=O)N[C@@H](Cc1c[nH]c2ccccc12)C(=O)N[C@@H](CC(C)C)C(=O)N[C@@H](CC(C)C)C(=O)N[C@@H](C)C(=O)N[C@@H](CCC(N)=O)C(=O)N[C@@H](CCCCN)C(=O)NCC(=O)N[C@@H](CCCCN)C(=O)N[C@@H](CCCCN)C(=O)N[C@@H](CC(N)=O)C(=O)N[C@@H](CC(=O)O)C(=O)N[C@@H](Cc1c[nH]c2ccccc12)C(=O)N[C@@H](CCCCN)C(=O)O)C(C)C)[C@@H](C)CC
Human GIP receptor [1]
  cAMP agonism Emax: 9.2
  cAMP antagonism: 8 nM
  cAMP antagonism % inhib: 75%
  cAMP antagonism log: -8.1 log M
Human GIP receptor [2]
  cAMP agonism % Emax: 0%
  cAMP antagonism: 2.33 nM
  cAMP antagonism % inhib: 99%
  cAMP antagonism pIC50: 8.6

B2: AT452 (peptide)
peptide: EGTFISDYSIAMDKIK(C16 diacid)QQDFVNWLLAQKGKKNDWKH-OH
modifications: N-terminus assumed
SMILES: CC[C@H](C)[C@H](NC(=O)[C@H](CO)NC(=O)[C@H](Cc1ccc(O)cc1)NC(=O)[C@H](CC(=O)O)NC(=O)[C@H](CO)NC(=O)[C@@H](NC(=O)[C@H](Cc1ccccc1)NC(=O)[C@@H](NC(=O)CNC(=O)[C@@H](N)CCC(=O)O)[C@@H](C)O)[C@@H](C)CC)C(=O)N[C@@H](C)C(=O)N[C@@H](CCSC)C(=O)N[C@@H](CC(=O)O)C(=O)N[C@@H](CCCCN)C(=O)N[C@H](C(=O)N[C@@H](CCCCNC(=O)CCCCCCCCCCCCCCC(=O)O)C(=O)N[C@@H](CCC(N)=O)C(=O)N[C@@H](CCC(N)=O)C(=O)N[C@@H](CC(=O)O)C(=O)N[C@@H](Cc1ccccc1)C(=O)N[C@H](C(=O)N[C@@H](CC(N)=O)C(=O)N[C@@H](Cc1c[nH]c2ccccc12)C(=O)N[C@@H](CC(C)C)C(=O)N[C@@H](CC(C)C)C(=O)N[C@@H](C)C(=O)N[C@@H](CCC(N)=O)C(=O)N[C@@H](CCCCN)C(=O)NCC(=O)N[C@@H](CCCCN)C(=O)N[C@@H](CCCCN)C(=O)N[C@@H](CC(N)=O)C(=O)N[C@@H](CC(=O)O)C(=O)N[C@@H](Cc1c[nH]c2ccccc12)C(=O)N[C@@H](CCCCN)C(=O)N[C@@H](Cc1c[nH]cn1)C(=O)O)C(C)C)[C@@H](C)CC
Human GIP receptor [1]
  cAMP agonism Emax: 7.2
  cAMP antagonism: 5 nM
  cAMP antagonism % inhib: 75%
  cAMP antagonism log: -8.3 log M
Human GIP receptor [2]
  cAMP agonism % Emax: 0%
  cAMP antagonism: 7.59 nM
  cAMP antagonism % inhib: 97%
  cAMP antagonism pIC50: 8.1

## EGTFISDYSIAMDKIK(C16 diacid)QQDFVNWLLAQKGKKNDWKHN-OH [AT362]
Human GIP receptor [1]
  cAMP agonism Emax: 7
  cAMP antagonism: 5 nM
  cAMP antagonism % inhib: 86%
  cAMP antagonism log: -8.3 log M
Human GIP receptor [2]
  cAMP agonism % Emax: 0%
  cAMP antagonism: 14.7 nM
  cAMP antagonism % inhib: 94%
  cAMP antagonism pIC50: 7.8

B3: AT453 (peptide)
peptide: EGTFISDYSIAMDKIK(C16 diacid)QQDFVNWLLAQKGKKNDWKHNI-OH
modifications: N-terminus assumed
SMILES: CC[C@H](C)[C@H](NC(=O)[C@H](CC(N)=O)NC(=O)[C@H](Cc1c[nH]cn1)NC(=O)[C@H](CCCCN)NC(=O)[C@H](Cc1c[nH]c2ccccc12)NC(=O)[C@H](CC(=O)O)NC(=O)[C@H](CC(N)=O)NC(=O)[C@H](CCCCN)NC(=O)[C@H](CCCCN)NC(=O)CNC(=O)[C@H](CCCCN)NC(=O)[C@H](CCC(N)=O)NC(=O)[C@H](C)NC(=O)[C@H](CC(C)C)NC(=O)[C@H](CC(C)C)NC(=O)[C@H](Cc1c[nH]c2ccccc12)NC(=O)[C@H](CC(N)=O)NC(=O)[C@@H](NC(=O)[C@H](Cc1ccccc1)NC(=O)[C@H](CC(=O)O)NC(=O)[C@H](CCC(N)=O)NC(=O)[C@H](CCC(N)=O)NC(=O)[C@H](CCCCNC(=O)CCCCCCCCCCCCCCC(=O)O)NC(=O)[C@@H](NC(=O)[C@H](CCCCN)NC(=O)[C@H](CC(=O)O)NC(=O)[C@H](CCSC)NC(=O)[C@H](C)NC(=O)[C@@H](NC(=O)[C@H](CO)NC(=O)[C@H](Cc1ccc(O)cc1)NC(=O)[C@H](CC(=O)O)NC(=O)[C@H](CO)NC(=O)[C@@H](NC(=O)[C@H](Cc1ccccc1)NC(=O)[C@@H](NC(=O)CNC(=O)[C@@H](N)CCC(=O)O)[C@@H](C)O)[C@@H](C)CC)[C@@H](C)CC)[C@@H](C)CC)C(C)C)C(=O)O
Human GIP receptor [1]
  cAMP agonism Emax: 6.1
  cAMP antagonism: 57 nM
  cAMP antagonism % inhib: 65%
  cAMP antagonism log: -7.2 log M
Human GIP receptor [2]
  cAMP agonism % Emax: 0%
  cAMP antagonism: 6.31 nM
  cAMP antagonism % inhib: 95%
  cAMP antagonism pIC50: 8.2

B4: AT363 (peptide)
peptide: EGTFISDYSIAMDKIK(C16 diacid)QQDFVNWLLAQKGKKNDWKHNITQ-OH
modifications: N-terminus assumed
SMILES: CC[C@H](C)[C@H](NC(=O)[C@H](CO)NC(=O)[C@H](Cc1ccc(O)cc1)NC(=O)[C@H](CC(=O)O)NC(=O)[C@H](CO)NC(=O)[C@@H](NC(=O)[C@H](Cc1ccccc1)NC(=O)[C@@H](NC(=O)CNC(=O)[C@@H](N)CCC(=O)O)[C@@H](C)O)[C@@H](C)CC)C(=O)N[C@@H](C)C(=O)N[C@@H](CCSC)C(=O)N[C@@H](CC(=O)O)C(=O)N[C@@H](CCCCN)C(=O)N[C@H](C(=O)N[C@@H](CCCCNC(=O)CCCCCCCCCCCCCCC(=O)O)C(=O)N[C@@H](CCC(N)=O)C(=O)N[C@@H](CCC(N)=O)C(=O)N[C@@H](CC(=O)O)C(=O)N[C@@H](Cc1ccccc1)C(=O)N[C@H](C(=O)N[C@@H](CC(N)=O)C(=O)N[C@@H](Cc1c[nH]c2ccccc12)C(=O)N[C@@H](CC(C)C)C(=O)N[C@@H](CC(C)C)C(=O)N[C@@H](C)C(=O)N[C@@H](CCC(N)=O)C(=O)N[C@@H](CCCCN)C(=O)NCC(=O)N[C@@H](CCCCN)C(=O)N[C@@H](CCCCN)C(=O)N[C@@H](CC(N)=O)C(=O)N[C@@H](CC(=O)O)C(=O)N[C@@H](Cc1c[nH]c2ccccc12)C(=O)N[C@@H](CCCCN)C(=O)N[C@@H](Cc1c[nH]cn1)C(=O)N[C@@H](CC(N)=O)C(=O)N[C@H](C(=O)N[C@H](C(=O)N[C@@H](CCC(N)=O)C(=O)O)[C@@H](C)O)[C@@H](C)CC)C(C)C)[C@@H](C)CC
Human GIP receptor [1]
  cAMP agonism Emax: 7
  cAMP antagonism: 5 nM
  cAMP antagonism % inhib: 82%
  cAMP antagonism log: -8.3 log M
Human GIP receptor [2]
  cAMP agonism % Emax: 0%
  cAMP antagonism: 12.6 nM
  cAMP antagonism % inhib: 90%
  cAMP antagonism pIC50: 7.9

B5: AT454 (peptide)
peptide: EGTFISDYSIAMDKIK(C16 diacid)QQDFVNWLLAQKGKKNDWKHNIT-OH
modifications: N-terminus assumed
SMILES: CC[C@H](C)[C@H](NC(=O)[C@H](CO)NC(=O)[C@H](Cc1ccc(O)cc1)NC(=O)[C@H](CC(=O)O)NC(=O)[C@H](CO)NC(=O)[C@@H](NC(=O)[C@H](Cc1ccccc1)NC(=O)[C@@H](NC(=O)CNC(=O)[C@@H](N)CCC(=O)O)[C@@H](C)O)[C@@H](C)CC)C(=O)N[C@@H](C)C(=O)N[C@@H](CCSC)C(=O)N[C@@H](CC(=O)O)C(=O)N[C@@H](CCCCN)C(=O)N[C@H](C(=O)N[C@@H](CCCCNC(=O)CCCCCCCCCCCCCCC(=O)O)C(=O)N[C@@H](CCC(N)=O)C(=O)N[C@@H](CCC(N)=O)C(=O)N[C@@H](CC(=O)O)C(=O)N[C@@H](Cc1ccccc1)C(=O)N[C@H](C(=O)N[C@@H](CC(N)=O)C(=O)N[C@@H](Cc1c[nH]c2ccccc12)C(=O)N[C@@H](CC(C)C)C(=O)N[C@@H](CC(C)C)C(=O)N[C@@H](C)C(=O)N[C@@H](CCC(N)=O)C(=O)N[C@@H](CCCCN)C(=O)NCC(=O)N[C@@H](CCCCN)C(=O)N[C@@H](CCCCN)C(=O)N[C@@H](CC(N)=O)C(=O)N[C@@H](CC(=O)O)C(=O)N[C@@H](Cc1c[nH]c2ccccc12)C(=O)N[C@@H](CCCCN)C(=O)N[C@@H](Cc1c[nH]cn1)C(=O)N[C@@H](CC(N)=O)C(=O)N[C@H](C(=O)N[C@H](C(=O)O)[C@@H](C)O)[C@@H](C)CC)C(C)C)[C@@H](C)CC
Human GIP receptor [1]
  cAMP agonism Emax: 8.9
  cAMP antagonism: 54 nM
  cAMP antagonism % inhib: 82%
  cAMP antagonism log: -7.3 log M
Human GIP receptor [2]
  cAMP agonism % Emax: 0%
  cAMP antagonism: 6.81 nM
  cAMP antagonism % inhib: 84%
  cAMP antagonism pIC50: 8.2
